Data taken from US10351618B2, “UTI fusion proteins” (Takeda Pharmaceutical Company Limited, priority 2014, dated 2019).

Legend:
papain = target: T1, papain (Carica papaya, UniProt P00784); experiment: Protease inhibition at Reaction Biology Corporation: papain; type: biochemical; conditions: FIG. 7
T1 sequence (P00784 134-345): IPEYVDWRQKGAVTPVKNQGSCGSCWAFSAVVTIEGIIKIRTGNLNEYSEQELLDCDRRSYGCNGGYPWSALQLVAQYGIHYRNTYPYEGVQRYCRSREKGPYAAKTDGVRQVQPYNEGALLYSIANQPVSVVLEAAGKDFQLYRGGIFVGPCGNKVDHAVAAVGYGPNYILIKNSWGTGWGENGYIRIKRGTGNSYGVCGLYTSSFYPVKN
Description: (§1) Measurement of the inhibition of other proteases by UTI-Fc1 was also measured at Reaction Biology Corporation (Malvern, Pa.). […] FIG. 7 lists the inhibitory constants of UTI-Fc1 for a variety of proteases.

cathepsin C = cathepsin C (Homo sapiens, UniProt P53634); experiment: Protease inhibition at Reaction Biology Corporation: cathepsin C; type: biochemical; conditions: FIG. 7
Description: as §1

C5a = experiment: LPS induced C5a in C3H mice (complement inhibition in vivo); parameters: species or system C3h/HeJ mice; conditions: 4 hours post LPS dose, p<0.05, FIG. 10
Description: UTI-Fc1 (SEQ ID NO:1) affects on the complement system were measured in vivo. Female, C3h/HeJ mice were purchased from Jackson Laboratories. Animals are dosed according to the experimental design Table 10. Animals were injected i.p. (100 ul/mouse) 15 minutes post dose with LPS at time zero. Animals were euthanized at 2 and 4 hours post LPS injection by CO2 overdose and blood was collected by cardiac puncture. Blood was transferred to serum separator microtubes and allowed to clot at room temperature for 30 minutes. Subsequently, microtubes were centrifuged at 12,000 rpm for 5 minutes and serum was removed and aliquoted to a 96 well plate. Rosmarinic acid was used as a positive control and used as 3 mg/ml in saline. The 96 well plate was frozen at −20° C. Serum samples were analyzed for C5a content by duoset. Statistical significance was determined using Prism graphing software and effects were considering statistically significant if p<0.05.

plasmin = plasmin (Homo sapiens, UniProt P00747); experiment: Protease inhibition at Reaction Biology Corporation: plasmin; type: biochemical; conditions: FIG. 7
Description: as §1

[1] = Thermal stability by differential scanning calorimetry; type: physicochemical
Description: Assays were performed to measure the thermal and real-time stability. […] Thermal stability was measured by differential scanning calorimetry on a Microcal VP-DSC calorimeter. Samples were prepared at 1 mg/ml and buffered in 0.25 mM Tris pH7.4, 0.13M NaCl and 0.0027M KCl. Samples were heated from 25° C. to 110° C. at a rate of 200° C. per hour. UTI-Fc1 was compared to Application Publication Number CN 103044554 A, SEQ ID's 2 and 6, which comprise an IgG2 or IgG1 Fc domain respectively.

caspase-1 = target: T2, caspase-1 (Homo sapiens, UniProt P29466); experiment: Protease inhibition at Reaction Biology Corporation: caspase-1; type: biochemical; conditions: FIG. 7
T2 sequence (P29466 120-404): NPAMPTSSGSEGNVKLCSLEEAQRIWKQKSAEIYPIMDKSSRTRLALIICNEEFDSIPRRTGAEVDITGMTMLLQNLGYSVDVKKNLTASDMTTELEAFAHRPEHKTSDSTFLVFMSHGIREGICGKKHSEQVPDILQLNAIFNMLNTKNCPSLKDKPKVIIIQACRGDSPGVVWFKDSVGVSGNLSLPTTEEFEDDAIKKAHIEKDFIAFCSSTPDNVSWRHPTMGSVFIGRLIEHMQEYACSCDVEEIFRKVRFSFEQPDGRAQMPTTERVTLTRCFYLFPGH
Description: as §1

[2] = Real-time stability (SEC, A280, PAGE) in TBS pH7.4; type: physicochemical
Description: Real-time stability measurements were performed by incubating SEQ ID NO:1 (UTI-Fc1) or CN 103044554 A, SEQ IDS 2 or 6 at 2-8° C., and 40° C. for 0, 2 and 4 weeks in TBS, pH7.4 buffer. The formation of higher and lower molecular weight species was determined by size exclusion chromatography (SEC) and visualized with polyacrilamide gel electrophoresis (PAGE). The concentration of each UTI-Fc was also monitored by determination of the absorbance of the solution at 280 nm (A280), using extinction coefficients determine by the protein composition. The UTI-Fc molecules produce two, partially overlapping peaks, when analyzed by SEC. The percentage peak area in each UTI-Fc sample measured by SEC is reported in Table 9 at time=0 weeks, 2 weeks, and 4 weeks. Also shown is the percentage change in concentration measured by A280 (% A (mg/ml)) at time=2 weeks and 4 weeks. The initial TO concentration of each sample was UTI-Fc1=33.5 mg/mL, CN 103044554 A SEQ ID 2=8.5 mg/mL, and CN 103044554 A SEQ ID 6=5.6 mg/mL. A variability of 3% is typical for SEC and 15% for individual UV measurements.

chymotrypsin = experiment: Protease inhibition at Reaction Biology Corporation: chymotrypsin; type: biochemical; conditions: FIG. 6, FIG. 7
Description: as §1

[3] = rodents and humans (Fries et al 2000); cited from earlier work
[4] = tested on: trypsin-induced IL-6 production in BEAS2B cells; experiment: Inhibition of trypsin-induced IL-6 release in BEAS2B cells; type: cell-based, human; conditions: 100 nM trypsin, 8 hours, FIG. 8
Description: UTI-Fc1 inhibition of cytokine release was measure in a cell-based assay. BEAS2B cells were seeded at the density of 20,000 cells/well in 96 well plate and cultured using complete BEGM Bullet Kit (Lonza) in CO2 incubator. After 24 hours, the culture media were replaced with plain DMEM for starvation and cells were cultured overnight. Then cells were incubated with fresh plain DMEM containing 100 nM trypsin with various concentrations of human urine UTI or recombinant UTI-Fc1 proteins. After 8 hours, culture supernatants were collected and IL-6 protein levels were assessed using human IL-6 DuoSet (R&D Systems).

plasma kallikrien = plasma kallikrien (Homo sapiens, UniProt P03952); conditions: full-length UTI (Morishita et al. 1994); cited from earlier work
Factor Xa = Factor Xa (Homo sapiens, UniProt P00742); conditions: full-length UTI (Morishita et al. 1994); cited from earlier work
Human pancreatic trypsin = target: T3, Human pancreatic trypsin (Homo sapiens, UniProt P07477); experiment: In vitro enzymatic assay for trypsin inhibition; type: biochemical; conditions: human pancreatic trypsin 1.5 nM, 15 min pre-incubation, FIG. 5
T3 construct: purchased Athens Research & Technology, Inc
Description: Solutions of UTI-Fc1 at various concentrations 200 nM final concentration) are prepared in 50 mM HEPES, 150 mM NaCl, 20 mM CaC12 and 0.01% Brij L23, pH 7.4. Activity assays were performed in Greiner 384-well small volume plates. All steps were conducted at ambient temperature.
Human pancreatic trypsin (1.5 nM final concentration) (Athens Research & Technology, Inc) was added to the dilutions then pre-incubated with the test UTI-Fc for 15 minutes. Next, the reaction was initiated with 100 μM (final) of substrate N[…]-Benzoyl-L-arginine-7-amido-4-methylcoumarin hydrochloride SIGMA B7260-25 MG. The reaction mixture total volume was 20 µl. Trypsin activity was determined via fluorescence. For example, the fluorescence intensity was determined in kinetic mode over a window of 30 to 60 minutes on a BMG PHERAstar FS or PHERAstar plus using an excitation wavelength of 370 nm and an emission wavelength of 470 nm. Trypsin activity was linearly proportional to the change in fluorescence observed (final−initial). […]
Where: Fi was the observed fluorescence at a given concentration of test UTI-Fc.
Fp was the observed fluorescence of a positive control i.e., the average value of 2 to 6 assays in the absence of Trypsin.
Fn was the observed fluorescence of a negative control i.e., the average value of 2 to 6 assays of Trypsin in the presence of vehicle alone. […]

[5] = 1 mg/ml, Tris pH7.4, 25° C. to 110° C. at 200° C. per hour

Chain of cathepsin C (P53634 25-463, species assumed): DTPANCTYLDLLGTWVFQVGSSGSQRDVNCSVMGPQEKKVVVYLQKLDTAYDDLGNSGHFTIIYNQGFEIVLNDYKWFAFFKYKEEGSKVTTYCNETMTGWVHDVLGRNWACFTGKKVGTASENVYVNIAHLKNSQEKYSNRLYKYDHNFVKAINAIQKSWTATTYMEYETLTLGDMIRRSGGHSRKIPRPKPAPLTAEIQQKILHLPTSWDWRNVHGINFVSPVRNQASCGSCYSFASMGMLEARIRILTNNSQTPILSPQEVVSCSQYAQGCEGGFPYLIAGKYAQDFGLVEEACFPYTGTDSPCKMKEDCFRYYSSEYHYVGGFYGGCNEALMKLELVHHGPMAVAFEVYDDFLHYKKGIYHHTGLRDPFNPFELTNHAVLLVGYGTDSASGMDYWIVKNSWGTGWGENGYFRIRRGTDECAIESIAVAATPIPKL
Chain of Factor Xa (P00742 235-488 limits assumed): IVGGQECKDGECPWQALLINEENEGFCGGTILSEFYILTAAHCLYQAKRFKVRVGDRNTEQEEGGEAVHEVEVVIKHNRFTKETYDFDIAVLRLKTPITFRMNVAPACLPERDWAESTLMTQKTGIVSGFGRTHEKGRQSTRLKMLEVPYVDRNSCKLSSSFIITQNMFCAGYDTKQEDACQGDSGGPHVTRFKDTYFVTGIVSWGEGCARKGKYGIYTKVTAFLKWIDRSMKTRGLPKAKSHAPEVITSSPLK
Chain of Factor Xa (P00742 41-179 partner limits assumed): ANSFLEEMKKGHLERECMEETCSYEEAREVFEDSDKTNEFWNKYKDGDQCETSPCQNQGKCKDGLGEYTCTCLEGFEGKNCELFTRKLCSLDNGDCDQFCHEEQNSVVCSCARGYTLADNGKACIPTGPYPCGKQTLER
Chain of plasma kallikrien (P03952 20-638): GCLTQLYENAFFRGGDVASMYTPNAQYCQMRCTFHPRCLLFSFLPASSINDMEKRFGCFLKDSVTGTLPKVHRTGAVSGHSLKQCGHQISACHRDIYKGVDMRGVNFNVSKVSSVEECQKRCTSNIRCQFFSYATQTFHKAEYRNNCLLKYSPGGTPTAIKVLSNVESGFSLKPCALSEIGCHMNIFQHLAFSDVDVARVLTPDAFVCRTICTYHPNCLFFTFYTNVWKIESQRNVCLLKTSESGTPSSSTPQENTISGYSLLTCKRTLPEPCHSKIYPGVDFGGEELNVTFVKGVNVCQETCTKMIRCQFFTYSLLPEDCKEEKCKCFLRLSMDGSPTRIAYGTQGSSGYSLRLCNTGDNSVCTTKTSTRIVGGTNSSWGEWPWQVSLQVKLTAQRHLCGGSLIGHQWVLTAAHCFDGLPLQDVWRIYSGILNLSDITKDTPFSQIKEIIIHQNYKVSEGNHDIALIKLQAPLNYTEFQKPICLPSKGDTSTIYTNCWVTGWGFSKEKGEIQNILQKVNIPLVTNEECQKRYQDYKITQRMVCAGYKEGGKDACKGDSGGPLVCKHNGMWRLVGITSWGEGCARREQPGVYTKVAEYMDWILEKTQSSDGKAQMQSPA
Chain of plasmin (P00747 581-810 limits assumed, species assumed): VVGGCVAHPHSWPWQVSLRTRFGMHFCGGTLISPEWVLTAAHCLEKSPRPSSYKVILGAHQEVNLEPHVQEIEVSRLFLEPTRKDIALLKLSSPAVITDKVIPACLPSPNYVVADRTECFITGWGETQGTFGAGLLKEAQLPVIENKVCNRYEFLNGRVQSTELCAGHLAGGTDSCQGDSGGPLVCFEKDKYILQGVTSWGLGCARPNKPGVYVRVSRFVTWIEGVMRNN
Chain of plasmin (P00747 97-580 partner limits assumed, species assumed): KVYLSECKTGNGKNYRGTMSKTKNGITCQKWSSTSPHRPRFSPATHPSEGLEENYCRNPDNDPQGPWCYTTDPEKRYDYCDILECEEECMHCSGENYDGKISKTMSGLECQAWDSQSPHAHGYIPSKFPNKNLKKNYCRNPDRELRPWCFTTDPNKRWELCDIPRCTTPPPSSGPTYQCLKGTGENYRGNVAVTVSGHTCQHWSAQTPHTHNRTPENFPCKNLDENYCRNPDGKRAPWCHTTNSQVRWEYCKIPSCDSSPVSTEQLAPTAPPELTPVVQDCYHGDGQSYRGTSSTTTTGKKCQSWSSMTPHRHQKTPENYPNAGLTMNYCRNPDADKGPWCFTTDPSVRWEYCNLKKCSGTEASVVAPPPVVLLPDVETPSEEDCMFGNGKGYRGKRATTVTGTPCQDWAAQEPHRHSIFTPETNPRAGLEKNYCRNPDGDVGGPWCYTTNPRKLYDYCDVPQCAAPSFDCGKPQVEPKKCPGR

Molecule: UTI-Fc1: UTI-Fc fusion protein, human UTI domain linked to wild type IgG1 Fc, SEQ ID NO: 1
- inhibition of papain (papain): weak inhibition
- inhibition of cathepsin C (cathepsin C): weak inhibition
- serum C5a (C5a; 20 mg/kg iv): significantly reduced
- serum C5a (C5a; 50 mg/kg iv): significantly reduced
- serum C5a (C5a; 100 mg/kg iv): significantly reduced
- inhibition of plasmin (plasmin): moderately
- thermal stability compared to the UTI fusion proteins of CN 103044554A [1]: greater thermal stability
- DSC Tm1 [1, 5]: 70.86 °C
- DSC Tm2 [1, 5]: 85.79 °C
- inhibition of caspase-1 (caspase-1): weak inhibition
- SEC percentage peak area Peak1 ([2]; 0 weeks): 35.7%
- SEC percentage peak area Peak2 ([2]; 0 weeks): 64.3%
- % Δ (mg/ml), percentage change in concentration by A280 ([2]; 2 weeks at 2-8° C.): 9.2%
- SEC percentage peak area Peak1 ([2]; 2 weeks at 2-8° C.): 36.2%
- SEC percentage peak area Peak2 ([2]; 2 weeks at 2-8° C.): 63.8%
- % Δ (mg/ml), percentage change in concentration by A280 ([2]; 2 weeks at 40° C.): 0.2%
- SEC percentage peak area Peak1 ([2]; 2 weeks at 40° C.): 37.1%
- SEC percentage peak area Peak2 ([2]; 2 weeks at 40° C.): 62.9%
- % Δ (mg/ml), percentage change in concentration by A280 ([2]; 4 weeks at 2-8° C.): 1.2%
- SEC percentage peak area Peak1 ([2]; 4 weeks at 2-8° C.): 36.1%
- SEC percentage peak area Peak2 ([2]; 4 weeks at 2-8° C.): 63.9%
- % Δ (mg/ml), percentage change in concentration by A280 ([2]; 4 weeks at 40° C.): 11.9%
- SEC percentage peak area Peak1 ([2]; 4 weeks at 40° C.): 36.8%
- SEC percentage peak area Peak2 ([2]; 4 weeks at 40° C.): 63.2%
- inhibition of chymotrypsin (chymotrypsin): moderately

B1: UTI: Urinary Trypsin Inhibitor, protease inhibitor of about 40 kD present in human urine and blood (protein)
chain: AVLPQEEEGSGGGQLVTEVTKKEDSCQLGYSAGPCMGMTSRYFYNGTSMACETFQYGGCMGNGNNFVTEKECLQTCRTVAACNLPIVRGPCRAFIQLWAFDAVKGKCVLFPYGGCQGNGNKFYSEKECREYCGVPGDGDEELLRFSN
- half-life [3]: 4 to 30 min
- IC50 of trypsin-induced IL-6 production [4]: 0.40 µg/mL
- inhibition of plasma kallikrien (plasma kallikrien): does not show inhibition
- inhibition of Factor Xa (Factor Xa): does not show inhibition
- IC50 (Human pancreatic trypsin): ~3 nM
